Target: MBP-Noc1/Noc2 complex (yeast, UniProt Q12176 1-1025; P39744 1-710)
Assay: pull-down

Sequence of MBP-Noc1/Noc2 complex (Q12176 whole entry, chain 1 of 2): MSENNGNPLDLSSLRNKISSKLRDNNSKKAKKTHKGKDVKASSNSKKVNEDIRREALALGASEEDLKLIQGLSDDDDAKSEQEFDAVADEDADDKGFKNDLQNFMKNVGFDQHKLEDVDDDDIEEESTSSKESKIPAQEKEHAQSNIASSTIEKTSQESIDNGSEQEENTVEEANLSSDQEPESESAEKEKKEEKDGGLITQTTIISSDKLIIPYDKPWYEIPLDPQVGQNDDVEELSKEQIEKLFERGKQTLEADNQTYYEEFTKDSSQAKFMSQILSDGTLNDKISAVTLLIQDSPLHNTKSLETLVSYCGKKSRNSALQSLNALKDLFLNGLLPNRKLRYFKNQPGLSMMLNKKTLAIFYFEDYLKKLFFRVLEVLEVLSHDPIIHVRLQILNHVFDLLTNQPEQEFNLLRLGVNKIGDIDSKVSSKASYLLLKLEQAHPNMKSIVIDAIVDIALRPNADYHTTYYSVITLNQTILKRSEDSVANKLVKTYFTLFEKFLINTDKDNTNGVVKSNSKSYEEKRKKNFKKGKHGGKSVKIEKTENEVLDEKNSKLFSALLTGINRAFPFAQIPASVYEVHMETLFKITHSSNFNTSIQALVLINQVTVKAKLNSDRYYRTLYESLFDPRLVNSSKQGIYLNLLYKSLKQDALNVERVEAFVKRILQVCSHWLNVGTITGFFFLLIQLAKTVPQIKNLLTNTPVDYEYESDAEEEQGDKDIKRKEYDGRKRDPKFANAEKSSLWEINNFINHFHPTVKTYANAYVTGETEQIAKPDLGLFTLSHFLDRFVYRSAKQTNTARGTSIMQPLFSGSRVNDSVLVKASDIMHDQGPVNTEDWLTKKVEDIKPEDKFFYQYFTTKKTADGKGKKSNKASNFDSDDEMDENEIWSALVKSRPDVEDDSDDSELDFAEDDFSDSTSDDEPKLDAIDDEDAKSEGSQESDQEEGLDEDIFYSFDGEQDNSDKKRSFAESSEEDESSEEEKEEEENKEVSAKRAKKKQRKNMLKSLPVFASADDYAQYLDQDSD
Sequence of MBP-Noc1/Noc2 complex (P39744 whole entry, chain 2 of 2): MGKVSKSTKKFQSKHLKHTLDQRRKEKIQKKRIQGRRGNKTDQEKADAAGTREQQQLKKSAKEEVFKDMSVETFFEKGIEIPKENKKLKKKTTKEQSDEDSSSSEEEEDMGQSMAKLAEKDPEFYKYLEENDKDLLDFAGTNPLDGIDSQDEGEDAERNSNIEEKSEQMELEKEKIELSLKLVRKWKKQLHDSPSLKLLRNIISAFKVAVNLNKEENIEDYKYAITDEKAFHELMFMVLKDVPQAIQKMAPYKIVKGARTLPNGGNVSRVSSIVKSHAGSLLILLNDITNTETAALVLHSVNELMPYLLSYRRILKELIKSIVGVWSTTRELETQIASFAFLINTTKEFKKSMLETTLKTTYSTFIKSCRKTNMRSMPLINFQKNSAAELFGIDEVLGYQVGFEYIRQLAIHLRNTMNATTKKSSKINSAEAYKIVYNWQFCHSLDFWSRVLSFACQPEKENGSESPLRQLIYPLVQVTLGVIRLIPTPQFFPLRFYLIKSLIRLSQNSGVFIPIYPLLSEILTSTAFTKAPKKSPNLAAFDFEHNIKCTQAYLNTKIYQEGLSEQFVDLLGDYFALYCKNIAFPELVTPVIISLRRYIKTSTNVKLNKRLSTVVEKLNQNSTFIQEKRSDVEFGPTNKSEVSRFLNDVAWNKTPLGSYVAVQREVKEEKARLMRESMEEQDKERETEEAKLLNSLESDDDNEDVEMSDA

B1: Rrp5 full length (natural protein, yeast, UniProt Q05022 1-1729, looked up)
chain: MVASTKRKRDEDFPLSREDSTKQPSTSSLVRNTEEVSFPRGGASALTPLELKQVANEAASDVLFGNESVKASEPASRPLKKKKTTKKSTSKDSEASSANSDEARAGLIEHVNFKTLKNGSSLLGQISAITKQDLCITFTDGISGYVNLTHISEEFTSILEDLDEDMDSDTDAADEKKSKVEDAEYESSDDEDEKLDKSNELPNLRRYFHIGQWLRCSVIKNTSLEPSTKKSKKKRIELTIEPSSVNIYADEDLVKSTSIQCAVKSIEDHGATLDVGLPGFTGFIAKKDFGNFEKLLPGAVFLGNITKKSDRSIVVNTDFSDKKNKITQISSIDAIIPGQIVDLLCESITKNGIAGKVFGLVSGVVNVSHLRTFSEEDLKHKFVIGSSIRCRIIACLENKSGDKVLILSNLPHILKLEDALRSTEGLDAFPIGYTFESCSIKGRDSEYLYLALDDDRLGKVHSSRVGEIENSENLSSRVLGYSPVDDIYQLSTDPKYLKLKYLRTNDIPIGELLPSCEITSVSSSGIELKIFNGQFKASVPPLHISDTRLVYPERKFKIGSKVKGRVISVNSRGNVHVTLKKSLVNIEDNELPLVSTYENAKNIKEKNEKTLATIQVFKPNGCIISFFGGLSGFLPNSEISEVFVKRPEEHLRLGQTVIVKLLDVDADRRRIIATCKVSNEQAAQQKDTIENIVPGRTIITVHVIEKTKDSVIVEIPDVGLRGVIYVGHLSDSRIEQNRAQLKKLRIGTELTGLVIDKDTRTRVFNMSLKSSLIKDAKKETLPLTYDDVKDLNKDVPMHAYIKSISDKGLFVAFNGKFIGLVLPSYAVDSRDIDISKAFYINQSVTVYLLRTDDKNQKFLLSLKAPKVKEEKKKVESNIEDPVDSSIKSWDDLSIGSIVKAKIKSVKKNQLNVILAANLHGRVDIAEVFDTYEEITDKKQPLSNYKKDDVIKVKIIGNHDVKSHKFLPITHKISKASVLELSMKPSELKSKEVHTKSLEEINIGQELTGFVNNSSGNHLWLTISPVLKARISLLDLADNDSNFSENIESVFPLGSALQVKVASIDREHGFVNAIGKSHVDINMSTIKVGDELPGRVLKIAEKYVLLDLGNKVTGISFITDALNDFSLTLKEAFEDKINNVIPTTVLSVDEQNKKIELSLRPATAKTRSIKSHEDLKQGEIVDGIVKNVNDKGIFVYLSRKVEAFVPVSKLSDSYLKEWKKFYKPMQYVLGKVVTCDEDSRISLTLRESEINGDLKVLKTYSDIKAGDVFEGTIKSVTDFGVFVKLDNTVNVTGLAHITEIADKKPEDLSALFGVGDRVKAIVLKTNPEKKQISLSLKASHFSKEAELASTTTTTTTVDQLEKEDEDEVMADAGFNDSDSESDIGDQNTEVADRKPETSSDGLSLSAGFDWTASILDQAQEEEESDQDQEDFTENKKHKHKRRKENVVQDKTIDINTRAPESVADFERLLIGNPNSSVVWMNYMAFQLQLSEIEKARELAERALKTINFREEAEKLNIWIAMLNLENTFGTEETLEEVFSRACQYMDSYTIHTKLLGIYEISEKFDKAAELFKATAKKFGGEKVSIWVSWGDFLISHNEEQEARTILGNALKALPKRNHIEVVRKFAQLEFAKGDPERGRSLFEGLVADAPKRIDLWNVYVDQEVKAKDKKKVEDLFERIITKKITRKQAKFFFNKWLQFEESEGDEKTIEYVKAKATEYVASHESQKADE
Q: Does B1 bind?
A: binds

Source: article PMC6800521 (RNA, 2019)
